The values that follow come from PMC4050190.

This assay concerns the target 6x His-p10 (pRSF duet, first multiple cloning site) (Sesbania mosaic virus).

“And” between values parts separate entries of the source, which are not always exact repeats. Identical values can stand only once.

Take “untagged SeMV RdRp (pRSF duet) (domain or fragment)”: the in vitro RdRp assay (incorporation of αP32 UTP, filter binding, 2 μg protein, 30 °C, 1 h): activity of the RdRp-p10 complex against RdRp alone is 5 fold and 6 fold.
